Test: soluble on expression in E. coli; label from the status in PepcDB or PDB records
With “MSLERTTHQSLNGSWQFQPVAATLHVTPQLQAPAGGWKKINVPDNWYRQGHDISGYAWYQTRFALDAHNASRVAHLVFHGVDYSADVWLNDRYLGHHTGYFQPFEFDVTGLVKPGENQLRVLVNSPLEQPQDWSLHKRLVKGIFSHHDTRPGGAWSERGQEKNTGGIWAPVELQFADRAAVRQLQVTPRKQATEANPQQWVVSTEADIHHDVSHETSVTVEARILPENFKGASFAFKQSQTLQPGGNHIAFSFPVDNPALWWPYEYGHPNLYRLELSVKDASGKLLDQREQVFGVREVKVDDGLQWFINGRRMFLRGTNYIASQWLAEMTPDRYRRDLEMMQAAHINAVRVHAHVTGQDFYELCDRMGILVTQDFPLLWGYSDDPDFIAEARRQAKDMVQLLQRHPSIISWTMHNEPPWDSPWMAQKYPDYHPDINRRLDALLYEDVSKLDTLRVVRKESATKEHEWMGWYFDHWLAFSRPAPTPWSTEFGAQALPNLKSLERMFSKALLWPDTEAKWQVWEYHNFQRKETFEFAGVKQGGNIEEFIANSQHYQARLIQFAVENYRRQRYAPVSAVFQFMFVENWPSINWGIVDYWREPKAGYEALRVAYQPVLPSLEWKQDEYEAGASPRIGLWAINDTWSGFEHASYTVTLYREGKPLDMLKLPLEMLPDSGYKLRDYALPVLEKGQYEIKAEITGQDGKSMGRNQYRFSVKEGHHHHHH” the “soluble on expression in E. coli” value was “soluble”.
In the case of “MSLETETMSQDLMQRGKAIKLAVFDVDGVLTDGRLYFMEDGSEIKTFNTLDGQGIKMLIASGVTTAIISGRKTAIVERRAKSLGIEHLFQGREDKLVVLDKLLAELQLGYEQVAYLGDDLPDLPVIRRVGLGMAVANAASFVREHAHGITRARGGEGAAREFCELILSAQGNLEAAHSVYLEGHHHHHH”, the “soluble on expression in E. coli” value is reported as “soluble”.
With “MSLFMNPHRRFWMVTGWTKSAIWVARWLLGIRWQCQGWEHIEEAVATNKQVVLLSKHQSAWETIAFVAIMPRPLCYVFKRELLYVPFFGWALGMLKMVHINRKDGTNAFASVARQGKERMADGSWIIMFPEGTRTPVGAPNPRYKSGGARLAVDTGAWVIPIAHNSGRLWPRNAFLKYPGLITLSIGPAISSAGKSGDQLNREVQAWIEAEMRRIDADSYEGHHHHHH” the “soluble on expression in E. coli” value was “not soluble”.
In the case of “MSLGDFSELARVNGEPVYVKEYKMKLLSNTTEVINYFSQSYAVETKENFRTDSYSGEAPVEMARKKALDDIVEVKVQQILAKEKGIIESTDYREFLKELENENRQRKDALKSNKVVYGPDNYGEIEYFNYSFDNMVSKLKEKLKENELSIPEEKLESMYNLLKDTRFKLPDDIKIQVISIGFTDEKGIINDDLKSKARVKIEEAKKRIDNGEPFEEVALDYNPKSGVLEYVFTKEKQMAKDISHPELLDEALKLKPGQVSEIIERSTDFVLILCKEKKSTGYLPYKDARKQLLDELIEKDYQEYIDKLVEQADVKINEKLYRRINVNEGHHHHHH”, the “soluble on expression in E. coli” value is reported as “soluble”.
For “MSLGEDEEKAFIVGTVQAIFFENPSNFYKVVLVNVTDTNTDYLEKEIVVTGSFGQVQEEEPYRFFGHFVDHPRYGRQFQVDSYQQERPTSASGVVNYLSSDKFPGIGKRTAEKIVEVLGESAIDRIIDDPSVLEEVTVLNEKKRQVIVETIRLNHGMEQVIVGLNRYGFGSQLAFSIYQTYQEETLSVIQENPYQLVEDIEGVGFKRADNIAEQIGIQADSAVRIRAAILHEVFEHSIRSGNTYVQADVLLEEAIRTLEASRPVEISPDQVANEIITLVEHGKIQQEETKLFENSLYFSEWGIGTSIQRLLSRKKEIHYEEEEVQKNIRMIEKRLNIQYGDSQQAAIEEAIKSPLFILTGGPGTGKTTVINGIVSLFAELNGLSLDLKDYTQEMFPILLAAPTGRAAKRMNETTGLPASTIHRLLGLTGREKNPSLTAKELEGGLLIVDEMSMVDTWLANTLLKAIPTNMQVIFVGDKDQLPSVGPGQVLHDLLQINEIPKCELNEIYRQGDGSSIIPLAHEIKEGKLPADFQKNQKDRSFFASDIGHIEEYIRQIVTKAKAKGFTPQDIQVLAPMYRGAAGIDALNKMMQEIFNPNDGKKKEVKWNDTVYRIGDKVLQLVNTPELNVFNGDMGEIVGITLAKDSEDKVDELVLQFDNNEVTYKRNEWNKITLSYCCSIHKAQGSEFRMVLLPMVHQYSRMLQRNLLYTAVTRSKELLILLGEVSAFETCVKNESASRMTMLKERIVNAEQEGHHHHHH”, the “soluble on expression in E. coli” value was “soluble”.
For “MSLGEETSYCFKEKSRGVLREWYAHNPYPSPREKRELAEATGMTTTQVSNWFKNRRQRDRAAEAKERENTENEGHHHHHH”, the “soluble on expression in E. coli” value was “soluble”.
In the case of “MSLGEVCEIMQAYGGVSIVNALPSWYGSSMAINLKVKVEIREGKRVYSQESELIKTILNYFKEKYSIPDIEVDIESELPQKSGLKSSSAVSVALIAEIAKQYDLRNINPPILSAILSLKAGVSYTGALDDAVASYCGGIAFTYNKMFRIVKLENLEDNLSILILAKGGRQKPVNLNELRKYSHVFEEIFKIALKDYLTAMKMNGILIANILGYSLEPIEIALKKGALAAGISGNGPSYFAVSKNGEEGPIYESLKKFGDVIIVRPVSLDCKDLSIKEGHHHHHH”, the “soluble on expression in E. coli” value is reported as “not soluble”.
For “MSLGFKEYYRVFPTYTDINSQEYRSRIETLEPLLMKYMKKRGKVLDLACGVGGFSFLLEDYGFEVVGVDISEDMIRKAREYAKSRESNVEFIVGDARKLSFEDKTFDYVIFIDSIVHFEPLELNQVFKEVRRVLKPSGKFIMYFTDLRELLPRLKESLVVGQKYWISKVIPDQEERTVVIEFKSEQDSFRVRFNVWGKTGVELLAKLYFTKEAEEKVGNYSYLTVYNPKEGHHHHHH”, the “soluble on expression in E. coli” value was “soluble”.
With “MSLGIATFAVVDLETTGNQLDYDEIIQIGITFVRQNQVIDTYHSMIRTDLEIPPFIQALTSIEEEMLVQAPYFNEVADDIYQLIKDCVFVAHNISFDLNFIKKAFEKCNIQFKPKRVMDTLELFKIAFPTDKSYQLSALAESHHIPLNNAHRADEDATTTAKLMIKAFEKFEQLHEGHHHHHH” the “soluble on expression in E. coli” value was “soluble”.
For “MSLGIKVVLLEKAHEIGEIGAGIQLGPNAFSALDSLGVGEVARQRAVFTDHITMMDAVNAEEVVCIETGQAFRDHFGGPYAVIHRVDIHASVWEAVLTHPDVEYHTSTNVVDIRETEDDVTVFDDRGNSWTGDILIGCDGVKSVVRQSLLGDAPRVTGHVVYRAVIDRADMPEDLRINAPVLWAGPHCHLVHYPLRGGKQYNLVVTFHSRQQEEWGVKDGSKEEVLSYFEGIHPRPRQMLDKPTSWRRWSTADREPVAKWGTKRITLVGDSAHPVAQYMAQGACMALEDAVTLGKALAQCEGDAAQAFALYESVRIPRTARIVWSTREMGRVYHAAGVERQVRNLLWKGKSQAEFYRGMEWLYGWKEDNCLQPREGHHHHHH”, the “soluble on expression in E. coli” value was “not soluble”.
In the case of “MSLGKEEEYRITNVKIFKDTPVWELALAVKNEKTRTIEKLAKENPELLNYQEPKYGATLLLWAVGMEKYKSAEALLKCGADPNIASTVDGMTPLYLAAGFSWIDNYAKKDPKFVKLLLKYNADPNITYGGNAIIEPGTSPLMNSIRCGIEKTKALVEAGAYINYKTKSGTTAAIKALLAGQNATLEALEYAHYLIVEKKAKVTDPYYPWLVYEENNIQELYPVDILRRWVYPLDSEEYRIKMEIVEEFARQGVNYWDTEIDKYTLEQIKKLYPDTWEEYIKRYEGHHHHHH”, the “soluble on expression in E. coli” value is reported as “soluble”.
With “MSLGKIRFGIVGTSNIANIFLRAASRVKDFELVAVYSRNLEKAREFGTLYGASIFFDDLEQMAKSKDIDAVYIASPNALHSKQTITCLKHKKHVLCEKSLASNLKEVKSMIKTAKDNNVLLMEAMRITCVPNFKAVKENLYKIGKIRRFFGSYCQYSSRYDKYKNGIIENAFKKELSNGALMDIGVYCIHPMVNLFGAPKTVKAVSHILQTGVDGEGSAVFQYDDMDAIIQYSKVADSYIPSEIQGEEGSIIIEKLNLFEKAIIKYRDGREEDISIPKEKAEEKPREIEGMYYELVEFISLINNNKIESNINSHENSIIVMEIMDEIRRQSSIVYPADSEGHHHHHH” the “soluble on expression in E. coli” value was “soluble”.
In the case of “MSLGKISFPVGVLFSGSGSYAQPARQGFRGAMTAIAHINASRRFPFNLQAHHFDPAGEADRYASLCRQLIRERDVRHVVGCTTSWSRKEAIPVVEKLDALLWYPCVYEGFEVSENLIYVAACANQHLVPLLDYIAPRFGSRAMLVGANYIWGWENNRIARDILHRSGGEVLGERFVSIGDTDIDHLIDEVREKRPDFILNNLIGPSSYAFLRAYQALGEADDRFRPEKCPIISCNLYEGEITGLGHAAAGHFTVSCYFRTLQSPENDSFLKTLAALDPGAIVDAFYAQAFSAVVMIAEAIMRCGSDDADLVRGALRGQSVDTPLGAISVDRWTNHVELPAHIGRARADGSFEIVKREGHHHHHH”, the “soluble on expression in E. coli” value is reported as “not soluble”.
